Experimental data as given in the Human Domainome abundance scans (Beltran et al. 2025).
± gives the uncertainty stated by the source.

B1: Homeobox protein cut-like 2, residues 895 to 963; numbered along this chain, O14529 (parent)
chain: EVDTLELTRQVKEKLAKNGICQRIFGEKVLGLSQGSVSDMLSRPKPWSKLTQKGREPFIRMQLWLSDQL

Variants of: B1
Experiment: abundance fitness (aPCA) (normalised: wild type 0, dead -1); higher = more abundant; growth selection in yeast, the domain comes from the species named
Settings: Homo sapiens

Variant | abundance fitness
G19T | -0.332 ± 0.097
G19N | -0.007 ± 0.076
G19A | -0.32 ± 0.095
G19P | -0.005 ± 0.15
G19S | -0.01 ± 0.062
G35E | 0.135 ± 0.045
G35M | -0.098 ± 0.036
G35Q | 0.088 ± 0.03
G35T | 0.039 ± 0.048
G35R | 0.037 ± 0.027
K14Y | -0.045 ± 0.068
K14P | -0.208 ± 0.091
K14Q | -0.012 ± 0.036
K14N | -0.249 ± 0.081
K14V | -0.03 ± 0.037
K14G | -0.589 ± 0.16
F58W | -0.111 ± 0.046
F58I | -0.596 ± 0.14
F58E | -0.763 ± 0.14
F58S | -1.11 ± 0.062
F58R | -0.906 ± 0.064
F58T | -1.11 ± 0.096
F58V | -0.662 ± 0.049
E1N | -0.067 ± 0.13

Variant | abundance fitness
E1S | -0.063 ± 0.12
E1T | -0.247 ± 0.075
E1V | -0.213 ± 0.038
E1K | -0.026 ± 0.067
E1L | -0.3 ± 0.045
R9H | -0.358 ± 0.1
R9E | -0.1 ± 0.034
R9Q | -0.132 ± 0.045
S38Y | -0.008 ± 0.32
S38P | -0.209 ± 0.026
P44W | -0.103 ± 0.058
P44C | -0.153 ± 0.054
P44K | -0.134 ± 0.075
P44E | -0.665 ± 0.075
P44Y | -0.041 ± 0.057
P44D | -0.429 ± 0.099
P44T | -0.101 ± 0.043
G54C | -0.007 ± 0.043
G54F | -0.048 ± 0.045
G54A | 0.084 ± 0.046
G54Y | -0.165 ± 0.059
L41D | -0.353 ± 0.18
L41M | -0.214 ± 0.032
L41I | -0.315 ± 0.056

Variant | abundance fitness
L41V | -0.518 ± 0.092
L41E | -0.41 ± 0.11
K17F | -0.267 ± 0.056
K17Q | 0 ± 0.051
K17A | -0.086 ± 0.046
T4R | -0.13 ± 0.035
T4G | -0.282 ± 0.035
T4Y | -0.468 ± 0.068
T4P | -0.179 ± 0.039
S36A | 0.073 ± 0.035
S36I | 0.027 ± 0.036
S36V | 0.064 ± 0.035
S36P | -0.08 ± 0.028
S36N | -0.045 ± 0.041
S36Q | 0.15 ± 0.032
I20G | -0.412 ± 0.057
I20D | -0.415 ± 0.067
I20P | -0.226 ± 0.042
I20Y | -0.179 ± 0.049
L69A | -0.164 ± 0.07
L69Y | -0.096 ± 0.098
L69C | -0.054 ± 0.059
L69G | -0.056 ± 0.045
L69N | -0.058 ± 0.13

Variant | abundance fitness
L69K | -0.041 ± 0.064
L69D | -0.188 ± 0.18
L69Q | -0.092 ± 0.074
L69M | -0.007 ± 0.049
K45D | -0.108 ± 0.068
K45E | -0.173 ± 0.074
K45A | -0.129 ± 0.11
K45P | -0.073 ± 0.16
E56I | 0.096 ± 0.095
E56A | -0.08 ± 0.041
E56D | -0.186 ± 0.12
E56C | -0.843 ± 0.069
E56V | -0.182 ± 0.049
R55D | -0.954 ± 0.094
R55V | -0.487 ± 0.031
R55M | -0.385 ± 0.044
R55Q | -0.303 ± 0.042
R55K | 0.052 ± 0.047
K12N | -0.27 ± 0.086
K12Q | -0.358 ± 0.061
K12R | -0.187 ± 0.031
K12G | -0.516 ± 0.037
Q34V | 0.073 ± 0.13
Q34F | 0.003 ± 0.04

Variant | abundance fitness
Q34S | -0.028 ± 0.031
Q34D | -0.078 ± 0.14
D3W | -0.221 ± 0.035
D3N | -0.001 ± 0.056
D67G | 0.009 ± 0.14
D67R | -0.008 ± 0.083
D67N | -0.07 ± 0.13
D67H | -0.296 ± 0.13
D67Q | 0.057 ± 0.068
V11A | -0.224 ± 0.041
V11E | -0.192 ± 0.039
V11L | -0.27 ± 0.035
V11H | -0.23 ± 0.07
V11N | -0.153 ± 0.083
K53A | -0.014 ± 0.035
K53V | -0.259 ± 0.082
Q52I | -0.06 ± 0.086
Q52W | -0.187 ± 0.052
Q52M | -0.106 ± 0.044
Q52R | 0.015 ± 0.032
Q52N | -0.215 ± 0.12
L63H | 0.012 ± 0.04
L63K | 0.113 ± 0.063
L63A | 0.058 ± 0.055

Variant | abundance fitness
L63R | 0.096 ± 0.051
L63I | -0.213 ± 0.059
L63Q | 0.078 ± 0.038
L63P | -0.728 ± 0.033
L63F | -0.274 ± 0.046
L30Y | -0.472 ± 0.05
L30K | -0.178 ± 0.038
L30I | -0.301 ± 0.049
L30M | -0.178 ± 0.036
I59H | 0.051 ± 0.047
I59T | -0.049 ± 0.034
C21F | -0.094 ± 0.15
C21D | -0.103 ± 0.099
C21T | 0.093 ± 0.04
C21M | -0.045 ± 0.039
C21V | -0.174 ± 0.041
C21S | 0.082 ± 0.043
G31S | -0.134 ± 0.032
G31M | -0.347 ± 0.068
G31D | -0.132 ± 0.072
G31L | -0.314 ± 0.036
G31R | -0.107 ± 0.038
G31N | -0.121 ± 0.081
G31T | -0.274 ± 0.039

Variant | abundance fitness
M40R | -0.145 ± 0.038
M40E | -0.475 ± 0.1
M40I | 0.007 ± 0.08
D39M | -0.178 ± 0.097
D39G | 0.026 ± 0.18
D39Q | 0.005 ± 0.096
D39W | -0.328 ± 0.36
D39S | -0.073 ± 0.057
S33C | -0.035 ± 0.037
S33Q | -0.027 ± 0.049
S33V | -0.061 ± 0.034
S33Y | -0.12 ± 0.047
S33F | -0.009 ± 0.047
E13P | -0.135 ± 0.049
E13F | -0.182 ± 0.034
E13K | -0.101 ± 0.043
S42L | -0.086 ± 0.026
S42V | -0.146 ± 0.036
S42G | -0.272 ± 0.28
S42Q | -0.092 ± 0.046
S42R | -0.054 ± 0.1
S42C | -0.004 ± 0.092
K49S | -0.079 ± 0.03
